One assay concerns the target T1, histidine tagged TRAIL (UniProt P50591 114-281, limits assumed).
T1 construct: also called TRAIL-His; TRAIL ligand; not shown: histidine tag
The assay is described as follows: ELISA, biotinylated antibody on TRAIL-His coat.

The target in assay [1] is T2, His-tagged cynomolgus monkey DR5 (cynomolgus monkey).
T2 construct: also called His-tagged DR5 (cynomolgus monkey)
The assay is described as follows: Biacore (SPR); DR5×CD3 diabody with His-tagged cynomolgus monkey DR5.
Experimental: Bispecific DR5×CD3 diabodies were incubated with His-tagged DR5 and the kinetics of binding was determined via Biacore analysis.

The next assay concerns the target T3, human DR5 (human, UniProt O14763 56-440).
T3 construct: also called Death Receptor 5; TRAIL-R2
The assay is described as follows: antibody titration read as MFI (log axis) against concentration in nM; the text does not describe the assay format or how DR5 was presented (Example 2).

We go through six molecules from patent US20180016344A1 (MacroGenics, published 2018).

T3 sequence (O14763 other isoform, or with tags, fused parts or gaps): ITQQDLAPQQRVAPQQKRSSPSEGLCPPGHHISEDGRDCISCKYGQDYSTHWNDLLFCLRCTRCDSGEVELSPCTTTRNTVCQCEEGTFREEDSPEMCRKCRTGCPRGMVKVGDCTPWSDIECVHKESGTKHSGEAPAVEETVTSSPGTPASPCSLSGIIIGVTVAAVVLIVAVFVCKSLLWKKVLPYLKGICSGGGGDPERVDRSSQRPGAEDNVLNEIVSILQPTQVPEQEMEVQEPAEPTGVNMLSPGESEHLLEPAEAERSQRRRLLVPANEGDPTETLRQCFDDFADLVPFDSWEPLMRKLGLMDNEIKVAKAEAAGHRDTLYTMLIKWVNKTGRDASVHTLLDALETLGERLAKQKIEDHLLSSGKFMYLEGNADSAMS
Experimental for histidine tagged TRAIL: The amount of immobilized biotinylated antibody was assessed.

B1: DR5 mAb 2 (antibody, V domains shown)
VH: KVQLQQSGAELVKPGASVKLSCKASGYTFTEYILHWVKQKSGQGLEWIGWFYPGNNNIKYNEKFKDKATLTADKSSSTVYMELSRLTSEDSAVYFCARHEQGPGYFDYWGQGTTLTVSS
VL: DIVMTQSHKFMSTSVGDRVSITCKASQDVNTAVAWYQQKPGQSPKLLIYWASTRHTGVPDRFTGSGSGTDYTLTIKSVQAEDLTLYYCQQHYITPWTFGGGTKLEIK
notes: It is a murine antibody; also called murine anti-human antibody DR5 mAb 2; DR mAb 2
With B1, the binding result in the assay with histidine tagged TRAIL was “no binding”.

B2: DR5 mAb 2×CD3 mAb 2 (bispecific antibody)
chain 1: DIVMTQSHKFMSTSVGDRVSITCKASQDVNTAVAWYQQKPGQSPKLLIYWASTRHTGVPDRFTGSGSGTDYTLTIKSVQAEDLTLYYCQQHYITPWTFGGGTKLEIKGGGSGGGGEVQLVESGGGLVQPGGSLRLSCAASGFTFSTYAMNWVRQAPGKGLEWVGRIRSKYNNYATYYADSVKGRFTISRDDSKNSLYLQMNSLKTEDTAVYYCVRHGNFGNSYVSWFAYWGQGTLVTVSSASTKGEVAACEKEVAALEKEVAALEKEVAALEK
chain 2: QAVVTQEPSLTVSPGGTVTLTCRSSTGAVTTSNYANWVQQKPGQAPRGLIGGTNKRAPWTPARFSGSLLGGKAALTITGAQAEDEADYYCALWYSNLWVFGGGTKLTVLGGGGSGGGGKVQLQQSGAELVKPGASVKLSCKASGYTFTEYILHWVKQKSGQGLEWIGWFYPGNNNIKYNEKFKDKATLTADKSSSTVYMELSRLTSEDSAVYFCARHEQGPGYFDYWGQGTTLTVSSASTKGKVAACKEKVAALKEKVAALKEKVAALKE
notes: also called DR5 mAb 2×CD3 mAb 2 diabody
In assay [1], B2 gave a Kd of 0.42 nM.

B3: DR5 mAb 3×CD3 mAb 2 (bispecific antibody)
chain 1: SELTQDPAVSVALGQTVRITCSGDSLRSYYASWYQQKPGQAPVLVIYGANNRPSGIPDRFSGSSSGNTASLTITGAQAEDEADYYCNSADSSGNHVVFGGGTKLTVLGGGGSGGGGEVQLVESGGGLVQPGGSLRLSCAASGFTFSTYAMNWVRQAPGKGLEWVGRIRSKYNNYATYYADSVKGRFTISRDDSKNSLYLQMNSLKTEDTAVYYCVRHGNFGNSYVSWFAYWGQGTLVTVSSASTKGEVAACEKEVAALEKEVAALEKEVAALEK
chain 2: QAVVTQEPSLTVSPGGTVTLTCRSSTGAVTTSNYANWVQQKPGQAPRGLIGGTNKRAPWTPARFSGSLLGGKAALTITGAQAEDEADYYCALWYSNLWVFGGGTKLTVLGGGGSGGGGEVQLVQSGGGVERPGGSLRLSCAASGFTFDDYAMSWVRQAPGKGLEWVSGINWQGGSTGYADSVKGRVTISRDNAKNSLYLQMNSLRAEDTAVYYCAKILGAGRGWYFDYWGKGTTVTVSSASTKGKVAACKEKVAALKEKVAALKEKVAALKE
notes: also called diabody with the VL and VH Domains of drozitumab
Take B3: the Kd in assay [1] stood at 13.3 nM.

B4: DR5 mAb 1×CD3 mAb 2 (bispecific antibody)
chain 1: DIVLTQSPASLAVSLGQRATISCRASKSVSSSGYSYMHWYQQKPGQPPKVLIFLSSNLDSGVPARFSGSGSGTDFTLNIHPVEDGDAATYYCQHSRDLPPTFGGGTKLEIKGGGSGGGGEVQLVESGGGLVQPGGSLRLSCAASGFTFSTYAMNWVRQAPGKGLEWVGRIRSKYNNYATYYADSVKGRFTISRDDSKNSLYLQMNSLKTEDTAVYYCVRHGNFGNSYVSWFAYWGQGTLVTVSSASTKGEVAACEKEVAALEKEVAALEKEVAALEK
chain 2: QAVVTQEPSLTVSPGGTVTLTCRSSTGAVTTSNYANWVQQKPGQAPRGLIGGTNKRAPWTPARFSGSLLGGKAALTITGAQAEDEADYYCALWYSNLWVFGGGTKLTVLGGGGSGGGGEVKFLESGGGLVQPGGSLKLSCVASGFDFSRYWMSWVRQAPGKGLEWIGEINPDSNTINYTPSLKDKFIISRDNAKNTLYLQMTKVRSEDTALYYCTRRAYYGNPAWFAYWGQGTLVTVSSASTKGKVAACKEKVAALKEKVAALKEKVAALKE
notes: also called bispecific DR5×CD3 diabody
B4 came in with a Kd in assay [1] of 32.5 nM.

B5: DR5 mAb 1 (antibody, V domains shown)
VH: EVKFLESGGGLVQPGGSLKLSCVASGFDFSRYWMSWVRQAPGKGLEWIGEINPDSNTINYTPSLKDKFIISRDNAKNTLYLQMTKVRSEDTALYYCTRRAYYGNPAWFAYWGQGTLVTVSS
VL: DIVLTQSPASLAVSLGQRATISCRASKSVSSSGYSYMHWYQQKPGQPPKVLIFLSSNLDSGVPARFSGSGSGTDFTLNIHPVEDGDAATYYCQHSRDLPPTFGGGTKLEIK
notes: also called anti-human DR5 monoclonal antibody DR5 mAb 1
For the molecule B5, the binding result in the assay with histidine tagged TRAIL is listed as “no binding”. Besides, the “EC50 (read off the curve)” value in the assay with human DR5 is around 1 nM.

B6: DR5 mAb 4×CD3 mAb 2 (bispecific antibody)
chain 1: EIVLTQSPGTLSLSPGERATLSCRASQGISRSYLAWYQQKPGQAPSLLIYGASSRATGIPDRFSGSGSGTDFTLTISRLEPEDFAVYYCQQFGSSPWTFGQGTKVEIKGGGSGGGGEVQLVESGGGLVQPGGSLRLSCAASGFTFSTYAMNWVRQAPGKGLEWVGRIRSKYNNYATYYADSVKGRFTISRDDSKNSLYLQMNSLKTEDTAVYYCVRHGNFGNSYVSWFAYWGQGTLVTVSSASTKGEVAACEKEVAALEKEVAALEKEVAALEK
chain 2: QAVVTQEPSLTVSPGGTVTLTCRSSTGAVTTSNYANWVQQKPGQAPRGLIGGTNKRAPWTPARFSGSLLGGKAALTITGAQAEDEADYYCALWYSNLWVFGGGTKLTVLGGGGSGGGGQVQLQESGPGLVKPSQTLSLTCTVSGGSISSGDYFWSWIRQLPGKGLEWIGHIHNSGTTYYNPSLKSRVTISVDTSKKQFSLRLSSVTAADTAVYYCARDRGGDYYYGMDVWGQGTTVTVSSASTKGKVAACKEKVAALKEKVAALKEKVAALKE
notes: also called diabody with the VL and VH Domains of conatumumab
On to B6, for which the affinity in assay [1], expressed as Kd, was 16.4 nM.
